As a reminder, the Kd is a measure of binding affinity in units of concentration. A lower Kd goes with tighter binding. The term koff denotes the rate constant with which the complex falls apart. Read a high koff as fast dissociation.

Assay [1] concerns the target LAT-FYFF (monovalent LAT1Y, residue 48-233), phosphorylated (UniProt O43561). The assay is described as follows: ITC. In general terms: Isothermal titration calorimetry measures the heat released or taken up as one component is titrated into another.
Assay [2] shares this target. In words: single-molecule dwell time analysis.

Chain of Grb2-Alexa Fluor 647 (P62993 whole entry): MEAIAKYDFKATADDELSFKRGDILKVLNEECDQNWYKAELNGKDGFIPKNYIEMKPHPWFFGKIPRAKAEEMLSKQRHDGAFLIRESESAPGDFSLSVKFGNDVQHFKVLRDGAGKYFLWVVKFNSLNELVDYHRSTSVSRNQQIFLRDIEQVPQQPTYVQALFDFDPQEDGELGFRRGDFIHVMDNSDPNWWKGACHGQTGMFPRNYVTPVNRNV

In assay [1], “Grb2-Alexa Fluor 647 (from UniProt P62993 1-217) (natural protein)” registered a Kd of 463 nM and a dH of -15 kcal/mol. In assay [2], this substance gave a koff of 3.4 s⁻¹ and a relative on-rate (against LAT-FFFY:Grb2 = 1) of 1.25.

The record behind these values is article PMC5761276.
